From paper PMC5117717 (2016) come the findings set out here.

In one experiment the target is RadA-ct (Pyrococcus furiosus). The experiment is described as follows: ITC.
A further experiment addresses HumRadA33 (Pyrococcus furiosus, UniProt O74036 108-349, S167K | V168A | I169M | W170Y | N175G | I182L | R183L | D192S | P193G | D194S | …). The experiment is described as follows: ITC. A general note: Isothermal titration calorimetry measures the heat released or taken up as one component is titrated into another.

By Kd is commonly meant the equilibrium constant for the complex coming apart. Low values mean higher affinity, high ones lower affinity. In the case of Ac-NLGTFMRADEYLKKRA-NH2 [RadA oligomerisation peptide], the figures for the Kd with RadA-ct and with HumRadA33 were 600 nM and 13 µM, respectively.
